Where two headings read alike, the source gives them in different places. Residues, ends and D or L forms follow the SMILES beside them. *: point of attachment. Doxorubicin(3'-N) = COc1cccc2c1C(=O)c1c(O)c3c(c(O)c1C2=O)C[C@@](O)(C(=O)CO)C[C@@H]3O[C@H]1C[C@H](N*)[C@H](O)[C@H](C)O1
Key:
[1] = Stability of conjugates in Hepes buffer (control of blood stability test); assay type: physicochemical; details: Hepes buffer pH 7.5, 10 μmolar, 37° C.
Description: (§1) The stability of doxorubicin conjugated peptides in human or nude mouse blood was evaluated by reverse phase HPLC with fluorescence detection after an 80% acetonitrile extraction. Individual peptides are prepared as 60 μmolar solutions in Hepes buffer pH 7.5 (50 mM), with CaCl2 (10 mM), Brij-35 (0.1%), followed by dilution to 10 μmolar in fresh heparinized whole blood or buffer. Solutions are incubated (37° C.) with slow continuous rocking. 50 μl reactions are terminated at designated times ranging from 1 minute to 24 hours by vortexing into 200 μl acetonitrile. After a brief centrifugation (1 min, 14,000×g) to pellet the precipitate, the acetonitrile is collected and evaporated to dry under a flow of nitrogen. Extracted samples are resuspended in 50 μl acetonitrile, followed by 100 μl distilled H2O, and transferred to HPLC autoinjector vials. Samples are chromatographed using a Nova-Pak C18 column (3.9×150 mm; WAT086344, Waters Corp. Milford, Ma), with a 12 minute linear gradient from 33.3 to 77.7% acetonitrile, 0.1% TFA, using a flow rate of 1 ml/min. A scanning fluorescence detector (# 474, Waters Corp) monitoring 480 nm excitation, 580 nm emission quantitates AUC of peaks of interest; mass is extrapolated from a standard curve generated under matching conditions.

[2] = Stability of conjugates in human blood; assay type: in vitro ADME; details: fresh heparinized whole human blood, 37° C., read-out: Conjugate Stability in Blood After 5.5 Hours (Percent of Control (In Buffer, T = 0)), Human Blood
Description: as §1

[3] = Stability of conjugates in nude mouse blood; assay type: in vitro ADME; details: fresh heparinized whole nude mouse blood, 37° C., read-out: Conjugate Stability in Blood After 5.5 Hours (Percent of Control (In Buffer, T = 0)), Nude Mouse Blood
Description: as §1

HT1080 cells [4] = experiment: cells; assay type: cell-based
Description: The conjugates were tested for cytotoxic effect against the HT1080 cell line, which expresses multiple MMPs. […] HT 1080 cells in culture have significant levels of MMPs 2, 9, and 14 and are consequently especially suitable for the evaluation of conjugates that are substrates for that enzyme.
The cell line was grown in tissue MEM with Earl's salts containing 10% fetal bovine serum (FBS). On day one, 500 cells were seeded into 96 well plates in 200 ul of cell culture medium that containing 10% FBS which had been stripped of bovine gelatinases by prior passage over a gelatin-sepharose column. On day two, peptidyl-Doxorubicin conjugates and Doxorubicin as a control were added to the plates. The cells were incubated for three days at 37° C., 5% CO2 in a tissue culture cell incubator. MTS reagent was added to each microplate well using the manufacturer's instructions […]. The plates were incubated for 2 hours at 37° C., 5% CO2. The plates were read on a Molecular Devices Spectropmax 250 plate reader at […]. The viability of the cells in each well was then calculated for each concentration of compound tested and compared to the control wells where no compound was added.

[5] = cited from earlier work
PSA protease = PSA protease (Homo sapiens, UniProt P07288); details: cited from earlier work
prostate tumor cells = details: cited from earlier work
[6] = mice; cited from earlier work
[7] = Phase I trial, in the tumor tissue; cited from earlier work
[8] = test system: human ovarian tumor xenograft; details: equitoxic doses; cited from earlier work
HT1080 cells [9] = experiment: Analysis of processing by HT1080 cultures (HPLC); assay type: cell-based
Description: Actively growing HT1080 cells are seeded in a 12 well plate at 2×10^5 cells per well in DMEM with 10% serum. On the next day, media is removed and cells are washed twice with PBS. 1.5 of DMEM containing 0.1% BSA, […] Ac-PLG-HofK(Me2)L-Dox (SEQ ID NO: 127) and 40 nM PMA is then added to each well. A broad spectrum MMP inhibitor is added to some samples so that the amount of processing that is due to MMPs can be determined. At the indicated times, 0.1 ml aliquots are removed, added to 0.4 ml acetonitrile, vortexed, and centrifuged for 2 minutes. 0.4 of cleared supernatant is removed and dried using a nitrogen stream. The dried pellet is suspended in 0.12 ml of HPLC Buffer A and analyzed as in Example 1000.
At the times used in this experiment, the only detectable metabolite is L-Dox. HofK(Me2)L-Dox and K(Me2)L-Dox are not detected since they are rapidly converted to L-Dox. At later times, Dox is formed from L-Dox.

[10] = HT1080 cells, three days, MTS, read-out: EC50

Chain of PSA protease (P07288 25-261): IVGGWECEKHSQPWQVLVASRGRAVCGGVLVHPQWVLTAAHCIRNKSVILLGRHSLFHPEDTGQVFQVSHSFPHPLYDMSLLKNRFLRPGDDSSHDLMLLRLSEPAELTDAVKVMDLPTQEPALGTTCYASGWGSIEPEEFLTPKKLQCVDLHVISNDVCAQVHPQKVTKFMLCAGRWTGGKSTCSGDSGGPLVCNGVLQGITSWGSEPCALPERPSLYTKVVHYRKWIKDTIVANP

| Compound | Conjugate Stability After 5.5 Hours (Percent of Control (In Buffer, T = 0)), Buffer [1] [%] | remaining at 5.5 h, 10 μmolar [2] [%] | remaining at 5.5 h, 10 μmolar [3] [%] | other results |
| --- | --- | --- | --- | --- |
| COc1cccc2c1C(=O)c1c(O)c3c(c(O)c1C2=O)C[C@@](O)(C(=O)CO)C[C@@H]3O[C@H]1C[C@H](NC(=O)[C@H](CC(C)C)NC(=O)CNC(=O)[C@H](CC(C)C)NC(=O)[C@@H]2CCCN2C(=O)CNC(C)=O)[C@H](O)[C@H](C)O1 [Ac-GPLG-L-Dox] (Ac-GPLGL-{Doxorubicin(3'-N)}) | 106 | 10.2 | 5.9 |  |
| COc1cccc2c1C(=O)c1c(O)c3c(c(O)c1C2=O)C[C@@](O)(C(=O)CO)C[C@@H]3O[C@H]1C[C@H](NC(=O)[C@H](CC(C)C)NC(=O)[C@H](C)NC(=O)[C@H](CC(C)C)NC(=O)CNC(=O)[C@H](CC(C)C)NC(=O)[C@@H]2CCCN2C(=O)CNC(C)=O)[C@H](O)[C@H](C)O1 [Ac-GPLG-LAL-Dox, acetyl-G-P-L-G-L-A-L-Dox] (Ac-GPLGLAL-{Doxorubicin(3'-N)}) | 92.2 | 15.4 | 5.8 |  |
| COc1cccc2c1C(=O)c1c(O)c3c(c(O)c1C2=O)C[C@@](O)(C(=O)CO)C[C@@H]3O[C@H]1C[C@H](NC(=O)[C@H](CC(C)C)NC(=O)[C@H](CC(C)C)NC(=O)CNC(=O)[C@H](CC(C)C)NC(=O)[C@@H]2CCCN2C(=O)CNC(C)=O)[C@H](O)[C@H](C)O1 [Ac-GPLG-LL-Dox, acetyl-G-P-L-G-L-L-Dox] (Ac-GPLGLL-{Doxorubicin(3'-N)}) | 105 | 42.6 | 25.8 |  |
| COc1cccc2c1C(=O)c1c(O)c3c(c(O)c1C2=O)C[C@@](O)(C(=O)CO)C[C@@H]3O[C@H]1C[C@H](NC(=O)[C@H](CC(C)C)NC(=O)CNC(=O)[C@H](CC(C)C)NC(=O)[C@@H]2CCCN2C(C)=O)[C@H](O)[C@H](C)O1 [Ac-PLG-L-Dox, Ac-PLGL-Dox] (Ac-PLGL-{Doxorubicin(3'-N)}) | 99.2 | 74.7 | 68.2 |  |
| COc1cccc2c1C(=O)c1c(O)c3c(c(O)c1C2=O)C[C@@](O)(C(=O)CO)C[C@@H]3O[C@H]1C[C@H](NC(=O)[C@H](CC(C)C)NC(=O)[C@H](C)NC(=O)[C@H](CC(C)C)NC(=O)CNC(=O)[C@H](CC(C)C)NC(=O)[C@@H]2CCCN2C(C)=O)[C@H](O)[C@H](C)O1 [Ac-PLG-LAL-Dox, acetyl-P-L-G-L-A-L-Dox] (Ac-PLGLAL-{Doxorubicin(3'-N)}) | 96.8 | 49.1 | 9 | EC50 (HT1080 cells [4]; [10]): < 10 µM |
| COc1cccc2c1C(=O)c1c(O)c3c(c(O)c1C2=O)C[C@@](O)(C(=O)CO)C[C@@H]3O[C@H]1C[C@H](NC(=O)[C@H](CC(C)C)NC(=O)[C@H](CC(C)C)NC(=O)CNC(=O)[C@H](CC(C)C)NC(=O)[C@@H]2CCCN2C(C)=O)[C@H](O)[C@H](C)O1 [Ac-PLG-LL-Dox, Acetyl-P-L-G-L-L-Dox] (Ac-PLGLL-{Doxorubicin(3'-N)}) | 106 | 87.2 | 63.8 | EC50 (HT1080 cells [4]; [10]): < 10 µM |
| COc1cccc2c1C(=O)c1c(O)c3c(c(O)c1C2=O)C[C@@](O)(C(=O)CO)C[C@@H]3O[C@H]1C[C@H](NC(=O)[C@H](CC(C)C)NC(=O)[C@H](C)NC(=O)[C@H](CC(C)C)NC(=O)[C@H](CC(C)C)NC(=O)CNC(=O)[C@H](CC(C)C)NC(=O)[C@@H]2CCCN2C(C)=O)[C@H](O)[C@H](C)O1 [Ac-PLG-LLAL-Dox, acetyl -P-L-G-L-L-A-L-Dox] (Ac-PLGLLAL-{Doxorubicin(3'-N)}) | 102.0 | 55.6 | 19.2 | EC50 (HT1080 cells [4]): < 10 µM |
| COc1cccc2c1C(=O)c1c(O)c3c(c(O)c1C2=O)C[C@@](O)(C(=O)CO)C[C@@H]3O[C@H]1C[C@H](NC(=O)[C@H](CC(C)C)NC(=O)[C@H](C)NC(=O)[C@H](Cc2ccc(O)cc2)NC(=O)[C@H](CC(C)C)NC(=O)CNC(=O)[C@H](CC(C)C)NC(=O)[C@@H]2CCCN2C(C)=O)[C@H](O)[C@H](C)O1 [Ac-PLG-LYAL-Dox, acetyl -P-L-G-L-Y-A-L-Dox] (Ac-PLGLYAL-{Doxorubicin(3'-N)}) | 91.3 | 37.5 | 20 | EC50 (HT1080 cells [4]; [10]): < 10 µM |
| COc1cccc2c1C(=O)c1c(O)c3c(c(O)c1C2=O)C[C@@](O)(C(=O)CO)C[C@@H]3O[C@H]1C[C@H](NC(=O)[C@H](CC(C)C)NC(=O)[C@H](Cc2ccc(O)cc2)NC(=O)[C@H](CC(C)C)NC(=O)CNC(=O)[C@H](CC(C)C)NC(=O)[C@@H]2CCCN2C(C)=O)[C@H](O)[C@H](C)O1 [Ac-PLG-LYL-Dox, acetyl-P-L-G-L-Y-L-Dox] (Ac-PLGLYL-{Doxorubicin(3'-N)}) | 112 | 90.1 |  |  |
| COc1cccc2c1C(=O)c1c(O)c3c(c(O)c1C2=O)C[C@@](O)(C(=O)CO)C[C@@H]3O[C@H]1C[C@H](N)[C@H](O)[C@H](C)O1 [Doxorubicin, doxorubicin, reference compound] |  |  |  | EC50 (HT1080 cells [4]; Homo sapiens, HT-1080, 72 h, HT1080 cells, three days, MTS, read-out: EC50): 0.008 to 0.009 µM; cumulative dose in excess of which there is a substantial risk of cardiotoxicity and myelosuppression [5]: 500 to 550 mg doxorubicin/m^2 |
| Ac-HSSKLQ-Leu-Dox: peptide-doxorubicin pro-drug targeted to the prostate-specific antigen (XSSKLQL; N-acetyl, Leu-doxorubicin conjugate) |  |  |  | substrate for the PSA protease (PSA protease): is a substrate for the PSA protease; activity against prostate tumor cells which express the protease activity (prostate tumor cells): is active against prostate tumor cells |
| Leu-Dox |  |  |  | overall conversion of Leu-Dox to Dox [6]: approximately 20%; conversion of Leu-Dox to Dox [7]: approximately 25%; anti-tumor efficacy compared with free doxorubicin [8]: more effective anti-tumor agent than free doxorubicin |
| acetyl-P-L-G-Hof-(N,N-dimethyl-K)-L-Dox (XLGXXL; non-natural residues) [Ac-PLG-HofK(Me2)L-Dox] |  |  |  | Fraction of L-Dox (HT1080 cells [9]; 0 hours, Minus MMP inhibitor): 0; Fraction of L-Dox (HT1080 cells [9]; 0 hours, Plus MMP inhibitor): 0; Fraction of L-Dox (HT1080 cells [9]; 3 hours, Minus MMP inhibitor): 0.10; Fraction of L-Dox (HT1080 cells [9]; 3 hours, Plus MMP inhibitor): 0.004; Fraction of L-Dox (HT1080 cells [9]; 5.5 hours, Minus MMP inhibitor): 0.20; Fraction of L-Dox (HT1080 cells [9]; 5.5 hours, Plus MMP inhibitor): 0.01; Fraction of L-Dox (HT1080 cells [9]; 8 hours, Minus MMP inhibitor): 0.46; Fraction of L-Dox (HT1080 cells [9]; 8 hours, Plus MMP inhibitor): 0.02 |
